± gives the standard deviation of the averaged measurements.

One data set concerns hTERT-HMEC. The experiment in a line: percentage of EdU-negative (G0-arrested) nuclei per well, 72 h; higher = more G0 arrest. The settings on record: reference: sequence is the full UniProt precursor, the tested protein was the secreted form or ectodomain.
A further data set relates to MCF7. The data set is described as above. The settings on record: reference: sequence is the full UniProt precursor, the tested protein was the secreted form or ectodomain.
The mark [1] stands for this setting: protein concentration 0.0257143 µM.
Where [2] appears, read: protein concentration 0.257143 µM.
Where [3] appears, read: protein concentration 0.016015 µM.
The mark [4] stands for this setting: protein concentration 0.16015 µM.
Setting [5] is: protein concentration 0.020665 µM.
[6] abbreviates: protein concentration 0.20665 µM.
The mark [7] stands for this setting: protein concentration 0.0357143 µM.
Setting [8] is: protein concentration 0.357143 µM.
Setting [9] is: protein concentration 0.0225 µM.
Setting [10] is: protein concentration 0.03125 µM.
Setting [11] is: protein concentration 0.3125 µM.
Setting [12] is: protein concentration 0.00625 µM.
The mark [13] stands for this setting: protein concentration 0.0625 µM.
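Also: secreted proteins added to cultured cells, EdU pulse at the end, nuclei found by Hoechst imaging, EdU status from nuclear versus surrounding ring intensity ratio, PBS as neutral control.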

With “MKVLLCDLLLLSLFSSVFSSCQRDCLTCQEKLHPALDSFDLEVCILECEEKVFPSPLWTPCTKVMARSSWQLSPAAPEHVAAALYQPRASEMQHLRRMPRVRSLFQEQEEPEPGMEEAGEMEQKQLQKRFGGFTGARKSARKLANQKRFSEFMRQYLVLSMQSSQRRRTLHQNGNV”, the “percentage of EdU-negative” value was determined as 4.77 ± 0.15% in the data set on hTERT-HMEC (setting [1]), 5.6 ± 0.068% in the data set on hTERT-HMEC (setting [2]), 24.9 ± 0.7% in the data set with MCF7 (setting [1]) and 27.5 ± 0.28% with MCF7 (setting [2]).
For the sequence “MKVLLRLICFIALLISSLEADKCKEREEKIILVSSANEIDVRPCPLNPNEHKGTITWYKDDSKTPVSTEQASRIHQHKEKLWFVPAKVEDSGHYYCVVRNSSYCLRIKISAKFVENEPNLCYNAQAIFKQKLPVAGDGGLVCPYMEFFKNENNELPKLQWYKDCKPLLLDNIHFSGVKDRLIVMNVAEKHRGNYTCHASYTYLGKQYPITRVIEFITLEENKPTRPVIVSPANETMEVDLGSQIQLICNVTGQLSDIAYWKWNGSVIDEDDPVLGEDYYSVENPANKRRSTLITVLNISEIESRFYKHPFTCFAKNTHGIDAAYIQLIYPVTNFQKHMIGICVTLTVIIVCSVFIYKIFKIDIVLWYRDSCYDFLPIKASDGKTYDAYILYPKTVGEGSTSDCDIFVFKVLPEVLEKQCGYKLFIYGRDDYVGEDIVEVINENVKKSRRLIIILVRETSGFSWLGGSSEEQIAMYNALVQDGIKVVLLELEKIQDYEKMPESIKFIKQKHGAIRWSGDFTQGPQSAKTRFWKNVRYHMPVQRRSPSSKHQLLSPATKEKLQREAHVPLG”, the “percentage of EdU-negative” value with hTERT-HMEC (setting [3]) turned out to be 4.76 ± 0.26%; in the data set on hTERT-HMEC (setting [4]), 5.92 ± 0.43%; in the data set on MCF7 (setting [3]), 25.8 ± 1.6%; in the data set with MCF7 (setting [4]) it was 26.2 ± 0.51%.
“MKVSEAALSLLVLILIITSASRSQPKVPEWVNTPSTCCLKYYEKVLPRRLVVGYRKALNCHLPAIIFVTKRNREVCTNPNDDWVQEYIKDPNLPLLPTRNLSTVKIITAKNGQPQLLNSQ”: the “percentage of EdU-negative” value in the data set on hTERT-HMEC (setting [5]) was determined as 5.16 ± 1.1%; in the data set on hTERT-HMEC (setting [6]), 5.51 ± 0.14%; with MCF7 (setting [5]), 22.9 ± 1.1%; with MCF7 (setting [6]), 25.9 ± 2.8%.
With “MKVSVAALSCLMLVAVLGSQAQFTNDAETELMMSKLPLENPVVLNSFHFAADCCTSYISQSIPCSLMKSYFETSSECSKPGVIFLTKKGRQVCAKPSGPGVQDCMKKLKPYSI”, the “percentage of EdU-negative” value was found to be 4.77 ± 0.69% with hTERT-HMEC (setting [7]), 4.52 ± 1.2% in the data set on hTERT-HMEC (setting [8]), 24.9 ± 0.52% in the data set on MCF7 (setting [7]) and 25.2 ± 0.81% in the data set on MCF7 (setting [8]).
Turning to “MKVSVAALSCLMLVTALGSQARVTKDAETEFMMSKLPLENPVLLDRFHATSADCCISYTPRSIPCSLLESYFETNSECSKPGVIFLTKKGRRFCANPSDKQVQVCMRMLKLDTRIKTRKN”, the “percentage of EdU-negative” value with hTERT-HMEC (setting [9]) came to 4.81 ± 0.43%; in the data set on hTERT-HMEC (protein concentration 0.225 µM), 5.12 ± 0.82%; with MCF7 (setting [9]) it was 22.9 ± 1.3%; in the data set with MCF7 (protein concentration 0.225 µM), 24.7 ± 1.1%.
On to “MKVTGIFLLSALALLSLSGNTGADSLGREAKCYNELNGCTKIYDPVCGTDGNTYPNECVLCFENRKRQTSILIQKSGPC”, for which the “percentage of EdU-negative” value in the data set with hTERT-HMEC (setting [9]) came to 5.21 ± 1.1%; in the data set with hTERT-HMEC (protein concentration 0.225 µM), 4.61 ± 0.16%; in the data set with MCF7 (setting [9]) it was 24 ± 0.32%; with MCF7 (protein concentration 0.225 µM), 25.6 ± 0.77%.
Take “MKVVPSLLLSVLLAQVWLVPGLAPSPQSPETPAPQNQTSRVVQAPKEEEEDEQEASEEKASEEEKAWLMASRQQLAKETSNFGFSLLRKISMRHDGNMVFSPFGMSLAMTGLMLGATGPTETQIKRGLHLQALKPTKPGLLPSLFKGLRETLSRNLELGLTQGSFAFIHKDFDVKETFFNLSKRYFDTECVPMNFRNASQAKRLMNHYINKETRGKIPKLFDEINPETKLILVDYILFKGKWLTPFDPVFTEVDTFHLDKYKTIKVPMMYGAGKFASTFDKNFRCHVLKLPYQGNATMLVVLMEKMGDHLALEDYLTTDLVETWLRNMKTRNMEVFFPKFKLDQKYEMHELLRQMGIRRIFSPFADLSELSATGRNLQVSRVLQRTVIEVDERGTEAVAGILSEITAYSMPPVIKVDRPFHFMIYEETSGMLLFLGRVVNPTLL [Q9UK55]”: the “percentage of EdU-negative” value with hTERT-HMEC (setting [10]) is 4.46 ± 0.39%; in the data set with hTERT-HMEC (setting [11]), 11.5 ± 0.79%; with MCF7 (setting [10]) it was 24.6 ± 0.79%; in the data set on MCF7 (setting [11]) it was 29.5 ± 0.31%.
With “MKVWLLLGLLLVHEALEDVTGQHLPKNKRPKEPGENRIKPTNKKVKPKIPKMKDRDSANSAPKTQSIMMQVLDKGRFQKPAATLSLLAGQTVELRCKGSRIGWSYPAYLDTFKDSRLSVKQNERYGQLTLVNSTSADTGEFSCWVQLCSGYICRKDEAKTGSTYIFFTEKGELFVPSPSYFDVVYLNPDRQAVVPCRVTVLSAKVTLHREFPAKEIPANGTDIVYDMKRGFVYLQPHSEHQGVVYCRAEAGGRSQISVKYQLLYVAVPSGPPSTTILASSNKVKSGDDISVLCTVLGEPDVEVEFTWIFPGQKDERPVTIQDTWRLIHRGLGHTTRISQSVITVEDFETIDAGYYICTAQNLQGQTTVATTVEFS”, the “percentage of EdU-negative” value in the data set with hTERT-HMEC (setting [12]) was 4.49 ± 0.2%; in the data set with hTERT-HMEC (setting [13]), 5.36 ± 0.45%; in the data set on MCF7 (setting [12]), 27.9 ± 0.57%; with MCF7 (setting [13]), 29.4 ± 1%.
